Measurements: a protein production outcome set (Wang et al. 2014)

Experiment: label from the status in PepcDB records

MNCAISGEVPVEPVVSTKSGLLFERRLIERHISDYGKCPVTGEPLTIDDIVPIKTGEIIKPKTLHTASIPGLLGTFQNEWDGLMLSNFALEQQLHTARQELSHALYQHDSACRVIARLKKERDEARQLLAEVERHIPAAPEAVTANAALSNGKRAAVDEELGPDAKKLCPGISAEIITELTDCNAALSQKRKKRQIPQTLASIDTLERFTQLSSHPLHKTNKPGICSMDILHSKDVIATGGVDATAVLFDRPSGQILSTLTGHSKKVTSVKFVGDSDLVLTASADKTVRIWRNPGDGNYACGYTLNDHSAEVRAVTVHPTNKYFVSASLDGTWCFYDLSSGSCLAQVSDDSKNVDYTAAAFHPDGLILGTGTSQSVVKIWDVKSQANVAKFDGHTGEVTAISFSENGYFLATAAEDGVRLWDLRKLRNFKSFLSADANSVEFDPSGSYLGIAASDIKVYQTASVKAEWNLIKTLPDLSGTGKATCVKFGSDAQYVAVGSMDRNYGYLVFLVMKKPTSMMTLRKTREQSVKNSDRTFQMSISSVISLKFLKFCCILQYLQQWGRIS
protein production: failed

MTETFNPDLDLKISRIIKAPRRLVWNAWTDKTSLEQWWVPHPGQCRVDKMELHPGGAFETRYSEDGREFGQHVSGCFLAVDHEQRLIFTDALTAGFRPSAQPFLTAVMTFRDHPDGMEYEAYAMHNNLADRDRHAEMGFFDGWNTVAEQLAQLVEKQAAH
protein production: failed

PEDAINDESDDEDKVDKDDRLPQSDKDKRIVPENEYSDSEDEGEGGRRDNRSYKGQRKRPRLDKDTNSNKASSETSSEIKDEKEKGDGADGEESTASNTNS
protein production: failed

MKKEIASHLLEIGAVFLQPNDPFTWSSGMKSPIYCDNRLTLSYPKVRQTIAAGLEELIKEHFPTVEVIAGTATAGIAHAAWVSDRMDLPMCYVRSKAKGHGKGNQIEGKAEKGQKVVVVEDLISTGGSAITCVEALREAGCEVLGIVSIFTYELEAGKEKLEAANVASYSLSDYSALTEVAAEKGIIGQAETKKLQEWRKNPADEAWITA
protein production: not failed

MANFEDFLTLDLRIGTVTHAEEFKEARVPAIKLEIDFGELGMKQSSAQITKRYNPEDLIGQQIVAVVNFPPKRVAGFKSEVLVLGGVPEAGDVVLLQPNMELPNGTKIS
protein production: not failed

MGRGRKHTDAAAEQRELAIKANIVDEPFSVSAIDRSIRKAEWVKTETDQILSGRCPETDGTWLGISTRGRVAFLVEAGTINRDRFNGAESRTLEFLESNESPEDFAKSSAADYIRNKNTAAFHLIVADIASNSMLYISKPRFSDYGIVYTEPVGPGVHTLSSAGLDSDVGYRDLRMRHSFCEMINRERLPPIRDIAEIMYDPVKAYESVLLSSIFFVDMKIGYEHYGTRITTALVVKRTKEVLFFERYREIFNDDWDDHDFAFTII
protein production: failed

LSQAEQDKLDAAVFRQLLQHLDQHKEVQNIDLMILADFCRNCLCKWYAAEAEKQGLDLNIDDARERVYGMTYDEWKANHQPPATPEQLAAFEAKTKSK
protein production: failed

AIAAIAEKAKGKEWTSTEKSREEDQQASNQPNSIALPGTSAKRTKEKMSVKGSKVLCPKKKAEHTDNPRPQKKIPIPPLPSKLPPVNLIHRDILRAWCQQLKLSSKGQKLDAYKRLCAFAYPNQKDFPSTAKEAKIRKSLQKKLKVEKGETSLQSSETHPPEVALPPVGEPPALENSTALLEGVNTVVVTTSAPEALLASWARISARARTPEAVESPQEASGVRWCVVHGKSLPADTDGWVHLQFHAGQAWVPEKQEGRVSALFLLPASNFPPPHLEDNMLCPKCVHRNKVLIKSLQWE
protein production: failed

MISWRDRLTKALPQIAVVVHDLLMVWVCWQLLHAGRYSMLRDAPNLPLWDWRTAVVLVAQGLVFWKMGLYRGLWRFASVPDLWNIFKASFLGLVAIVLALAYDRLDGVPLSVLVVYPFALSALLGTPRLLYRAWKDYQIAHSGDAAQRVLILGAGRAAEGLVRDLRRTGAFVPVGYLDDANNLHGAKIQGLNVLGNLDQAAAIAKETAAKLLVIAIPSLDASGMQRVVAICESTGLPFRMVPKLINVLEGRSLPGELKEVAIEDLLNRKPVTPDWRLIRDWLTNKTVMVTGAGGSIGSEVCRQCARHGARRIVLLEIDELALLTIDSDLRRLFPDIEVVRVLGDCGDPAVVAHALNTATPDAVFHAAAYKQVPLLEEQLREAVRNNVLATENVARACQRARIETFVFISTDKAVEPVNVLGASKRYAEMICQSLDARDAPTRFITVRFGNVLDSAGSVVPLFREQIRQGGPVTVTHPDVTRYFMTIPEACQLVIQAAASASHGAIYTLDMGEPVPIRLLAEQMIRLAGKQPGKDVAILYTGLRPGEKLHETLFYSDEAYRPTAHPKILEAGVREFSHEQVLQLVMRLREAVNRYDIKAMETVLGSLMPDFAAARRKVDARSDTVVPFPAREVRRL
protein production: failed

AEIVEGRDYTVLSAPQPTEGDSEHIEVIEFFWYGCPHCSDLHPHLSRWLENKPADVAFRFVPAILRNNWVPGAKTFYAMESLGLTQTLHDKVYHAIHREKTDLSKEATLFDWIGKQGVDRDKFIGAYNSFTVQNQANRSAQMIRQYKLTGVPALVVDGRYLTSGKAGGTPQDTISVLNQLIEK
protein production: failed

MPKMIMVNKKASESQVMELEKRNYNNPVVLCGFAGSTPTGVLAASYIVETLGMHQVAHLISQHIPPVAVFVGGKLRHPFRIYANNSNTVLVAMCEVPISSAHIYEISNTLMNWIDQVGASEIVIMEGSPANGIPEERPVFAVAEKPKLDKFKKAGIQPADSAIIAGMGGGILNECLVRKITGLSFITPTSVDIPDPGAVLSIIEAINKAYNLKIKTDLLEEQVKALDEQIKKIEEQYKELQEKQKEPQSMYG
protein production: not failed

MTDEDSEANALADPDNPPLSAEQLASAPRMPRIKIIRRALKLTQEEFSARYHIPLGTLRDWEQGRSEPDQPARAYLKIIAVDPEGTAAALRKGAT
protein production: not failed

MNGKLNLPINTVIGVSLLVLLLVPALYFAKPVLLPMVISTFVALLFSPLINYFEDKGLPRTITVVVTLTLLVSVSILGLAAISEPAKQWWAELPSIVQNVSQEVNEVTKASSEHMNAPLELASDMNIDEMGNNTVFSLLKALATTTPTLLTQAMIVLFMVYFMLNHGRSLFRKSVSRLRGFSKQRQAVELVQALQKDLSRYIGTITLVNAGLGLCVGLVFFVLGLEDPFLWGAFAGVMNFAPYLGPVISMASFGFVAYLQLDSVSFMLTVVSIYLLLNLIESQFVTPTLLGRRFNLNPLVIFMWLVFWGWLWGGMGLLIGVPLLVCINILADRLALCGSTNI
protein production: failed

MEGLAAFIIITLMIIIVPGPDFFVVMKNSITSGKGNGAMAALGITSGHVVYSLLAVFGIIFILANMYYVFVTIKILGAIYLIYLGIRSIISARQSMNFSTSQLKAQRITYLSSYRQGFFSTILNPKALLYYISILPQFLSTGEAVTSQIAILTAIVTTVILLWFIFCVYIFQYIKLLFTNRKIKAIFDYTVGAILIGLSLNLLLSKSS
protein production: failed

MFKGDMNKKRAKALQKVKEAITLHGGQTILSTGITGDDARLAKAVCEAGVKLLEPNHPALALARGHKGVSNMHAAEQIRHEITNSQMAEAVHGVRNVVPDDIFITVGIAGGFTETLPVPLSEKEILEIARAGADGLHTHKSDWDDLQDIVNLAHQYGLTVDAYIGHPDDLHTFGIPARTPEEVASVAKRMQDIGVDMIGLMTGMSYEGVAAGDIPQMIKDRLRALVGAVDVPTLAEGGINLANAKAFKDTGVNILVVGTAIDNMVCNAAKEAVTPFIVH
protein production: not failed

MAKGSAKKSFLDLFKITDSNDDDFDDDMFDDEDEMEDEYDDPYDEAYDSEEEYDDGSDAASDRAKASPLKSFNKYKNSRTPSGNVSKTKTAKSSQNSKLVSINSRSDRDSYDDSEVFVIKPDEFDDAQMIIDHLNRGQIIVINMEDLDLPTAQRIADFIGGASYAVNGLFQAISGNIFLATPNGTYVSGDLREELAGGSLGGEDLSKATY
protein production: failed

YKGKNLIMIQVEALQQFVINSKVENQEITPNLNRWINKSLYFNNFFYQVSSGNTSDAEFLANNSFYPAASGAAYYLYAGNTYSSLAKEMNDNNYYTAVLHGYKEGFWNRNVMYKAEKFKDFFGEKSFNINENVGLGLSDKSFLNQSFNKLKSFSSPYYSFIITLSSHYPYDDTKGYGDFNVGDYEGTLLGNYLKGIHYTDAQLGTFLDKLEKSGIMDNSVVILYGDHYAIPKDKINDLYDFENIKNPTDLDWYELQKVPMLIHFPKDQYKGINSEYSGQIDLYPTIANMFNLPQNYMLGTDLFASKNRNVIFRNGSFTDGNVFYVSWTNTYYDIKTGS
protein production: failed

MEYFLENPDHLWYLIAGISFVIELSIMGLSGPLLFFAIASLTTGILVTVGFVEGWQSEIFTVGVLTAIIAAILWKPLKSLQNSKDTTDNSSDMVGLTVLASTEINVSSGSIRYSGIDWQARLAEEANGESISAQSQCVIVAITGNIMLVKSL
protein production: failed

MKIITIEEHFESEVITNEINKVTGNLVSGQVSPEMFQYMQKELPSAMEMQDTEKRLAFMDQHGIDMQVLSYGNSSPQNLGPKISVALCKRANDELAKVIQQNPTRFAGFAVLPVGSPEDAAIELKRAVEELGFKGALVKGQFENKYFDNSFYYPIFEMAEKLDVPISFHPSFIPEPITEQYFASDAWSDVVTGVFSSAGFGWHMDVGIQVVRMILSGIFDKLPNLKIITGHLGEMVPMFLNRMDDTLGHWTTLERKISDYYRTNVYVTPSGLLYKNEWKFLLNELDENHLIYALDYPFVKTENAGTFLDTLDLTDEVKAKIAHENAEKLLHL
protein production: not failed

MEKKKPFSVLLMGSDARPGETNGRADTIILATANKQQNAVEMVSIPRDTKVDYGNGDIGKINASYSNGGPSGTVSAVEKLMPGVPVDYFISINMEGFKDLVDAVGGITVYNDIDLTEVNSKFVKGNITLNGTDALQYVRIRHEDPRGDFGRQDRQRDVIIGIANKVISSSGVSNFESIMKAVGDNFQTNMTLTDITSMATNYSSVLKNVDSQELKGEGEMIYSESYGFDLYYFAPDETDLERVINMFKKSLDITELEHHHHHH
protein production: not failed

MDISVIDATKVNTETGLHIGESNAPVKMIEFINVRCPYCRKWFEESEELLAQSVKSGKVERIIKLFDKEKESLQRGNVMHHYIDYSAPEQALSALHKMFATQDEWGNLTLEEVATYAEKNLGLKEQKDATLVSAVIAEANAAHIQFVPTIIIGEYIFDESVTEEELRGYIEK
protein production: not failed
